Data from paper doi:10.1101/2024.08.05.606604, “The molecular basis of Human FN3K mediated phosphorylation of glycated substrate” (bioRxiv, 2024).

Molecular target: the molecule itself
Assay: crystal structure; HsFN3KΔ crystals, hanging drop vapor diffusion at 20 °C (0.5 M ammonium sulfate, 0.1 M tri-sodium citrate, 1 M lithium sulfate); space group P212121, two molecules in the asymmetric unit; apo and soaked with nucleotides and DMF

B1: HsFN3KΔ (human fructosamine-3-kinase with an internal loop truncation: amino acid 117–138 replaced with a GSS linker) (enzyme)
chain: MEQLLRAELRTATLRAFGGPGAGCISEGRAYDTDAGPVFVKVNRRTQARQMFEGEVASLEALRSTGLVRVPRPMKVIDLPGGGAAFVMEHLKMKSLSSQASKLGEQMADLHLYNQKGSSYVDKFGFHTVTCCGFIPQVNEWQDDWPTFFARHRLQAQLDLIEKDYADREARELWSRLQVKIPDLFCGLEIVPALLHGDLWSGNVAEDDVGPIIYDPASFYGHSEFELAIALMFGGFPRSFFTAYHRKIPKAPGFDQRLLLYQLFNYLNHWNHFGREYRSPSLGTMRRLLK
notes: human fructosamine-3-kinase (FN3K), Gene ID 64122, residues before the truncated loop (up to residue 116); linker that replaces amino acids 117–138; human fructosamine-3-kinase (FN3K), Gene ID 64122, residues after the truncated loop (from residue 139); Construct used for all crystal structures; also called apo-HsFN3K; apo-HsFN3KΔ; source: E. coli Rosetta 2 (DE3), purified (Ni-NTA, SP-HP cation …)
**Q.** For B1, which “stoichiometry N” value is on record?
**A.** Its value is 2.
